Assay results as given in publication PMC12646314, “Structure and encapsulation of carbonic anhydrase within the α-carboxysome” (Proceedings of the National Academy of Sciences of the …, 2025).

T1: CsoS4A-CsoS1A minishell (Construct 4, S4A-S1A) (Halothiobacillus neapolitanus, UniProt O85043 1-83; P45689 1-98)
T1 construct: CsoS4A, shell pentamer of H. neapolitanus; CsoS1A, major shell hexamer of H. neapolitanus; Icosahedral shells, T = 3 and T = 4 populations; also called minishells; mini-α-shells; source: E. coli TOP10, purified (sucrose cushion and gradient, HiTrap Q FF anion exchange)
T1 sequence 1: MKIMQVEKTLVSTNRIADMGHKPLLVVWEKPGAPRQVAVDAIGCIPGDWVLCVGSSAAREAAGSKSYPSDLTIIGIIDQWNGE
T1 sequence 2: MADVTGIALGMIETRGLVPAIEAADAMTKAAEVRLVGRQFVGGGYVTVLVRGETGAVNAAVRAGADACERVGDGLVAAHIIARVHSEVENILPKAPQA


How the values were obtained:
[1] = target: T1, CsoS4A-CsoS1A minishell (Construct 4, …); assay: co-purification with assembled minishells (sucrose cushion and gradient, anion exchange), immunoblot; CsoSCA constructs coexpressed with minishell constructs in E. coli TOP10; minishells purified; samples normalised to CsoS1A; anti-His blot; conditions: partners not purified
[2] = target: the molecule itself; assay: cryo-EM structure; single-particle cryo-EM of purified T = 4 minishell/CsoSCA^ΔC (2.36 Å symmetry relaxed) and minishell/CsoSCA-C (3.05 Å); internal density seen at low contour, disordered
[3] = target: the molecule itself; assay: SEC-MALS; Superdex 200 Increase 10/300 GL, 0.70 mL/min, Buffer W (100 mM Tris/HCl pH 8, 150 mM NaCl, 1 mM EDTA), room temperature; injected at 5.6 mg/mL (CsoSCA), 0.9 mg/mL (CsoSCA-N), 1 mg/mL (CsoSCA^ΔC), 1.9 mg/mL (CsoSCA-C)

| Binder | stoichiometry N [2] | also measured |
| --- | --- | --- |
| CsoSCA-His6 (CsoSCA fused to a C-terminal His6 tag) (enzyme, Halothiobacillus neapolitanus, UniProt O85042 1-514, looked up, CsoSCA of H. neapolitanus, UniProt O85042; called full-length CsoSCA in the discussion; also called full-length CsoSCA; source: E. coli TOP10, coexpressed with minishell constructs, co-purified with minishells; not shown: His6, C-terminal, kept) MNTRNTRSKQRAPFGVSSSVKPRLDLIEQAPNPAYDRHPACITLPERTCRHPLTDLEANEQLGRCEDSVKNRFDRVIPFLQVVAGIPLGLDYVTRVQELAQSSLGHTLPEELLKDNWISGHNLKGIFGYATAKALTAATEQFSRKIMSEKDDSASAIGFFLDCGFHAVDISPCADGRLKGLLPYILRLPLTAFTYRKAYAGSMFDIEDDLAQWEKNELRRYREGVPNTADQPTRYLKIAVYHFSTSDPTHSGCAAHGSNDRAALEAALTQLMKFREAVENAHCCGASIDILLIGVDTDTDAIRVHIPDSKGFLNPYRYVDNTVTYAQTLHLAPDEARVIIHEAILNANRSDGWAKGNGVASEGMRRFIGQLLINNLSQIDYVVNRHGGRYPPNDIGHAERYISVGDGFDEVQIRNLAYYAHLDTVEENAIDVDVGIKIFTKLNLSRGLPIPIAIHYRYDPNVPGSRERTVVKARRIYNAIKERFSSLDEQNLLQFRLSVQAQDIGSPIEEVASA |  | fold copurified CsoSCA, against minishells with CsoS2 [1]: ≥ 4 fold |
| CsoS1A (the major shell hexamer) (natural protein, Halothiobacillus neapolitanus, CsoS1A, major alpha-carboxysome shell protein of H. neapolitanus; also called CsoS1A shell hexamer; source: E. coli TOP10, expressed from the minishell construct; in lysate (pull-down) and in purified minishells (cryo-EM)) MADVTGIALGMIETRGLVPAIEAADAMTKAAEVRLVGRQFVGGGYVTVLVRGETGAVNAAVRAGADACERVGDGLVAAHIIARVHSEVENILPKAPQA | 6 |  |
| Twin-Strep-GB1-CsoSCA (Halothiobacillus neapolitanus carboxysomal carbonic anhydrase) (enzyme, CsoSCA, alpha-carboxysomal beta-class carbonic anhydrase of Halothiobacillus neapolitanus; UniProt O85042; the domain scheme runs from residue 1 to 514; Vector pETM11; TEV protease was used to remove the tags only for DLS; also called HnCsoSCA; source: Superdex 200 for cryo-EM; not shown: Twin-Strep, N-terminal, kept) NTRNTRSKQRAPFGVSSSVKPRLDLIEQAPNPAYDRHPACITLPERTCRHPLTDLEANEQLGRCEDSVKNRFDRVIPFLQVVAGIPLGLDYVTRVQELAQSSLGHTLPEELLKDNWISGHNLKGIFGYATAKALTAATEQFSRKIMSEKDDSASAIGFFLDCGFHAVDISPCADGRLKGLLPYILRLPLTAFTYRKAYAGSMFDIEDDLAQWEKNELRRYREGVPNTADQPTRYLKIAVYHFSTSDPTHSGCAAHGSNDRAALEAALTQLMKFREAVENAHCCGASIDILLIGVDTDTDAIRVHIPDSKGFLNPYRYVDNTVTYAQTLHLAPDEARVIIHEAILNANRSDGWAKGNGVASEGMRRFIGQLLINNLSQIDYVVNRHGGRYPPNDIGHAERYISVGDGFDEVQIRNLAYYAHLDTVEENAIDVDVGIKIFTKLNLSRGLPIPIAIHYRYDPNVPGSRERTVVKARRIYNAIKERFSSLDEQNLLQFRLSVQAQDIGSPIEEVASA |  | stoichiometry N [3]: 6 |
| CsoS4A (shell pentamer) (natural protein, Halothiobacillus neapolitanus, CsoS4A, alpha-carboxysome shell vertex protein of H. neapolitanus; also called CsoS4A pentamer; source: E. coli TOP10, expressed from the minishell construct, in purified minishells) MKIMQVEKTLVSTNRIADMGHKPLLVVWEKPGAPRQVAVDAIGCIPGDWVLCVGSSAAREAAGSKSYPSDLTIIGIIDQWNGE | 5 |  |
